For 94 variants, protein stability index results are on record in the supplement of paper PMC10567573.

The labels stand for the following.
B1: KRT13 (parent)
chain: KTIEELRDKILTATIENNRVILEI
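Also: lentivirally expressed fusions sorted by FACS into six bins by GFP to DsRed ratio, PSI derived from sequencing read proportions per bin multiplied by bin number.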

This data set covers variants of B1. Kind of data set: protein stability index of a GFP-peptide fusion (GPS, HEK-293T) (PSI 1-6); higher = more stable. Conditions: c terminus: a fixed tail appended.
As to KTIEELRDKILTATIENNRVIHEI [L22H], the protein stability index is 2.52.
The value for KTIEELRDKILTATIENNRVISEI [L22S] was 2.1; that for KTIEELRDKILTATIENNRVIYEI [L22Y] was 2.83.
On to KTIEELRDKILTATIENNRVIEEI [L22E], for which the protein stability index was 3.14.
As to KTIEELRDKILTATIENNRVIPEI [L22P], the protein stability index amounted to 3.33.
Regarding KTIEELRDKILTATIENNRVIVEI [L22V], the protein stability index came out at 2.97.
Take KTIEELRDKILTATIENNRVIGEI [L22G]: the protein stability index was 1.8.
The value for KTIEELRDKILTATIENNRVINEI [L22N] was 2.83; that for KTIEELRDKILTATIENNRVIMEI [L22M] was 2.2; that for KTIEELRDKILTATIENNRVIREI [L22R] was 2.14.
Next, KTIEELRDKILTATIENNRVIDEI [L22D]: 2.84; KTIEELRDKILTATIENNRVIKEI [L22K]: 2.38.
Next, KTIEELRDKILTATIENNRVIFEI [L22F]: 3.35; KTIEELRDKILTATIENNRVICEI [L22C]: 2.8; KTIEELRDKILTATIENNRVIQEI [L22Q]: 2.88.
For KTIEELRDKILTATIENNRVIAEI [L22A], the protein stability index came out at 2.2.
Take KTIEELRDKILTATIENNRVITEI [L22T]: the protein stability index was found to be 1.93.
The value for KTIEELRDKILTATIENNRVILKI [E23K] was 1.25; that for KTIEELRDKILTATIENNRVILDI [E23D] was 2.45; that for KTIEELRDKILTATIENNRVILHI [E23H] was 2.05.
Next, KTIEELRDKILTATIENNRVILYI [E23Y]: 2.07.
Next, KTIEELRDKILTATIENNRVILPI [E23P]: 2.08; KTIEELRDKILTATIENNRVILGI [E23G]: 2.06; KTIEELRDKILTATIENNRVILRI [E23R]: 2.55.
For KTIEELRDKILTATIENNRVILQI [E23Q], the protein stability index is 2.47.
Next, KTIEELRDKILTATIENNRVILWI [E23W]: 2.9; KTIEELRDKILTATIENNRVILFI [E23F]: 4.41; KTIEELRDKILTATIENNRVILAI [E23A]: 1.85.
Next, KTIEELRDKILTATIENNRVILLI [E23L]: 2.42.
Next, KTIEELRDKILTATIENNRVILMI [E23M]: 3.54.
For KTIEELRDKILTATIENNRVILVI [E23V], the protein stability index turned out to be 3.08.
Next, KTIEELRDKILTATIENNRVILII [E23I]: 2.71; KTIEELRDKILTATIENNRVILSI [E23S]: 2.78.
The value for KTIEELRDKILTATIENNRVILTI [E23T] was 2.79; that for KTIEELRDKILTATIENNREILEI [V20E] was 2.27; that for KTIEELRDKILTATIENNRSILEI [V20S] was 2.01.
Next, KTIEELRDKILTATIENNRWILEI [V20W]: 3.15.
Turning to KTIEELRDKILTATIENNRRILEI [V20R], the protein stability index came out at 1.72.
Next, KTIEELRDKILTATIENNRAILEI [V20A]: 1.82; KTIEELRDKILTATIENNRHILEI [V20H]: 1.6; KTIEELRDKILTATIENNRFILEI [V20F]: 1.8.
Next, KTIEELRDKILTATIENNRKILEI [V20K]: 2.1; KTIEELRDKILTATIENNRQILEI [V20Q]: 2.05.
The value for KTIEELRDKILTATIENNRDILEI [V20D] was 2.35; that for KTIEELRDKILTATIENNRNILEI [V20N] was 2.57; that for KTIEELRDKILTATIENNRGILEI [V20G] was 1.6.
On to KTIEELRDKILTATIENNRIILEI [V20I], for which the protein stability index worked out at 2.69.
Consider KTIEELRDKILTATIENNRYILEI [V20Y], for which the protein stability index turned out to be 1.78.
With KTIEELRDKILTATIENNRPILEI [V20P], the protein stability index amounted to 1.78.
The value for KTIEELRDKILTATIENNRTILEI [V20T] was 2.33; that for KTIEELRDKILTATIENNRLILEI [V20L] was 3.48.
The value for KTIEELRDKILTATIENSRVILEI [N18S] was 2.99; that for KTIEELRDKILTATIENRRVILEI [N18R] was 3.44; that for KTIEELRDKILTATIENPRVILEI [N18P] was 3.68.
With KTIEELRDKILTATIENYRVILEI [N18Y], the protein stability index stood at 2.01.
The value for KTIEELRDKILTATIENWRVILEI [N18W] was 1.96; that for KTIEELRDKILTATIENNRVRLEI [I21R] was 2.49.
The value for KTIEELRDKILTATIENNRVELEI [I21E] was 2.19; that for KTIEELRDKILTATIENNRVNLEI [I21N] was 1.64.
Next, KTIEELRDKILTATIENNRVFLEI [I21F]: 3.3.
For the variant KTIEELRDKILTATIENNRVSLEI [I21S], the protein stability index worked out at 1.55.
Take KTIEELRDKILTATIENNRVQLEI [I21Q]: the protein stability index was found to be 1.94.
Next, KTIEELRDKILTATIENNRVMLEI [I21M]: 2.18.
Next, KTIEELRDKILTATIENNRVVLEI [I21V]: 2.6.
The value for KTIEELRDKILTATIENNRVHLEI [I21H] was 2.49.
For the variant KTIEELRDKILTATIENNRVGLEI [I21G], the protein stability index stood at 1.62.
Next, KTIEELRDKILTATIENNRVPLEI [I21P]: 2.44; KTIEELRDKILTATIENNRVTLEI [I21T]: 1.47; KTIEELRDKILTATIENNRVDLEI [I21D]: 2.43.
Next, KTIEELRDKILTATIENNRVLLEI [I21L]: 2.52; KTIEELRDKILTATIENNRVYLEI [I21Y]: 2.79; KTIEELRDKILTATIENNRVKLEI [I21K]: 1.74.
Next, KTIEELRDKILTATIENNRVCLEI [I21C]: 2.42; KTIEELRDKILTATIENNRVILEW [I24W]: 2.09; KTIEELRDKILTATIENNRVILEF [I24F]: 3.
As for KTIEELRDKILTATIENNRVILEY [I24Y], the protein stability index came out at 2.16.
Regarding KTIEELRDKILTATIENNRVILES [I24S], the protein stability index was 1.92.
Next, KTIEELRDKILTATIENNRVILEG [I24G]: 2.63.
With KTIEELRDKILTATIENNRVILEA [I24A], the protein stability index is 2.65.
The value for KTIEELRDKILTATIENNRVILEP [I24P] was 3.4.
KTIEELRDKILTATIENNRVILET [I24T]: the protein stability index is 1.73.
The value for KTIEELRDKILTATIENNRVILEM [I24M] was 1.9.
Take KTIEELRDKILTATIENNRVILEN [I24N]: the protein stability index worked out at 2.64.
The value for KTIEELRDKILTATIENNRVILEK [I24K] was 3.08; that for KTIEELRDKILTATIENNRVILEL [I24L] was 3.35.
Next, KTIEELRDKILTATIENNRVILED [I24D]: 3.09; KTIEELRDKILTATIENNRVILEH [I24H]: 1.93; KTIEELRDKILTATIENNRVILEE [I24E]: 2.65.
The value for KTIEELRDKILTATIENNRVILEC [I24C] was 2.44; that for KTIEELRDKILTATIENNRVILER [I24R] was 1.98.
With KTIEELRDKILTATIENNRVILEV [I24V], the protein stability index worked out at 2.97.
Next, KTIEELRDKILTATIENNRVILEQ [I24Q]: 2.44; KTIEELRDKILTATIENNSVILEI [R19S]: 2.23.
Next, KTIEELRDKILTATIENNNVILEI [R19N]: 1.76.
